Experimental data published in patent publication US20160264662A1 (US Dept. of Health and Human Services, published 2016).

Molecular target: T1, human TEM8 (hTEM8) expressed on CHO or 293 cells (human, UniProt Q9H6X2 33-564)
T1 construct: also called CHO TEM8
Assay: cell-based ELISA-type titration of m825-MMAE on CHO cells overexpressing TEM8, with TEM8-negative CHO cells as control; absorbance at 450 nm against Log (ng/well)

T1 sequence (Q9H6X2 33-564 limits assumed): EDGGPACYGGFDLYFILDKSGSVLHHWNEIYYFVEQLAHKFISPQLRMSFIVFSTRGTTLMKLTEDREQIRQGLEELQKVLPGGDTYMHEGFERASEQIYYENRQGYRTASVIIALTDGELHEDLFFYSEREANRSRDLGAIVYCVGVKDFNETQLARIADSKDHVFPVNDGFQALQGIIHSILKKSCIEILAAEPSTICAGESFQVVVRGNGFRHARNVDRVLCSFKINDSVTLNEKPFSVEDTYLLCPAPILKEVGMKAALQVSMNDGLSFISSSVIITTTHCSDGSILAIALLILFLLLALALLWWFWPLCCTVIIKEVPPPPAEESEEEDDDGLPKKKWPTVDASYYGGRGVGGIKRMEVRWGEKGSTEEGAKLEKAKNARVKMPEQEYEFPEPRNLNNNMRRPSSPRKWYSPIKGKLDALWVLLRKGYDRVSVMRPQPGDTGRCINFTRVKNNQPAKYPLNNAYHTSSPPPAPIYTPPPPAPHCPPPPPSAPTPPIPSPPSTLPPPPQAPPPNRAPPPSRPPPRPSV

B1: m825-MMAE conjugate (m825 antibody in human IgG1 format conjugated to MMAE) (other)
VH: QVQLVQSGAEVKKPGTSVKVSCKVPGYTFSSYAISWVRQAPGQGLEWMGGIIPIFGTTNYAQKFQGRVTITGEESTSTVYMELSSLRSEDTAVYYCARDTDYMFDYWGQGTLVTVSS
VL: SSELTQDPVVSVALGETVSITCQGDNLRDFYASWYQQKPGQAPLLVMYGKNRRPSGIPDRFSGSTSGNTLSLTITGAQAEDEADYYCSSRDNSKHVVFGGGTKVTVL
modifications: MMAE with stretcher unit, Val-Cit peptide cleavage site and spacer, attached to thiol groups formed by partial reduction of inter-chain disulfide bonds (positions not stated)
notes: also called anti-TEM8-MMAE
EC50 (read off the curve): ~2 ng/well
